Laboratory results reported in patent US20220356229A1 (published 2022).
Substitutions are numbered along the chain they refer to.

B1: anti-SARS-CoV-2 antibody 1135 (antibody, V domains shown)
VH: EVQLVESGGGLVQPGRSLRLSCAASGLTFEDYAMHWVRQVPGKGLEWVSGISWNSGTIGYADSVKGRFIISRDNAKNSLYLQMRSLRAEDTALYYCAKDVGFGELLYYAFDIWGQGTMVTVSS
VL: QSALTQPASVSGSPGQSITISCTGTSSDVGGYNYVSWYQQHPGKAPKLMIYDVSNRPSGVSNRFSGSKSGNTASLTISGLQAEDEADYYCSSYTSSSTVVFGGGTKLTVLG
B2: anti-SARS-CoV-2 antibody 1139 (antibody, V domains shown)
VH: QVQLVQSGAEVKKPGASVKVSCKASGYTFSSYEINWVRQATGQGLEWMGRMTLNSGNTGYAQNFQGRVTMTRDTSISTAYMELSGLRSEDTAVYYCARMRSGWPTHGRPDDYWGQGTLVTVSS
VL: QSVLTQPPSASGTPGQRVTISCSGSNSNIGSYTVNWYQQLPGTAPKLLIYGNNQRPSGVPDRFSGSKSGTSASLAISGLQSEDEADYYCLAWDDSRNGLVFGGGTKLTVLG
B3: anti-SARS-CoV-2 antibody 1149 (antibody, V domains shown)
VH: QVQLVQSGAEVKKPGASVKVSCKASGYTFASYDINWVRQATGQGPEWMGWMIPNIGNTGYAQKFQGRVTMTRNTSISTAYMELSSLTSEDTAVYYCARVSRLFNDFGLRHEAPVDFWGQGTRVTVSS
VL: QSVLTQPPSVSGAPGQRVTISCTGSSSNIGAGYDVHWYQQLPGTAPKLLIYGYSSRPSGVPDRFSGSKSGTSASLAITGLQAEDEADYYCQSYDSSLSVLFGGGTKLTVLG
B4: anti-SARS-CoV-2 antibody 1036 (antibody, V domains shown)
VH: QVQLVQSGAEVKKPGSSVKVSCKASGGTLSSYTISWVRQAPGQGLEWMGRIIPILGIADYAQKFQGRVTITADKSTTTAYMDLSSLGSEDTALYYCASAPKDWSSGFDYYYGMDVWGQGTMVTVSS
VL: DIVMTQTPLSLSVTPGQPASISCKSSQSLLNSDGKTYLYWYLQKAGQPPQLLIYEVSNRFSGVPERFSGSGSGTDFTLKISRVEAEDVGVYYCMQSVQLPPYTFGQGTKLEITR
B5: mAb 896 (antibody, V domains shown)
VH: EVQLVESGGGVVQPGGSLRLSCAASGFTFDDYAMHWVRQVPGKGLEWVSLISGDGGSTYYADSVKGRFTISRDNSKNSLYVQMNSLRTEDTALYYCVKDRGGSGWDLNHYYYGMDVWGQGTTVTVSS
VL: DIQLTQSPSFLSASVGDRVTVTCRASQGISSYLAWYQQKPGKAPKLLIYAAYTLQSGVPSRFSGSGSETEFTLTISSLQPEDFATYYCQQVKSYPLTFGGGTKVEIKR
B6: mAb 936 (antibody, V domains shown)
VH: EVQLVESGGGLVQPGRSLTLSCAGSGFTFDDYAMHWVRQAPGKGLEWVSGISWNSGSIGYADSVKGRFTISRDNAKNSLYLQMNSLRAEDTALYYCAKDVSYDSSGYYNNAFDIWGQGTMVTVSS
VL: B5 VL with V21I, Y52S, E68G, V91L, K92Y, L96V, G100Q, K103R, V104L
B7: mAb 970 (antibody, V domains shown)
VH: EVQLVESGGGLVQPGGSLRLSCAASGFTFSSYWMSWVRQAPGKGLEWVANINKDGSEKYYVDSVKGRFTISRDNAKNSLYLQMNSLRAEDTAVYFCARDYRYFDWLLSQIDLEIDYFDYWGQGTLVTVSS
VL: not shown
B8: mAb 894 (antibody, V domains shown)
VH: QVQLVQSGAEVKKPGASVKVSCKVSGYTLPELSIHWVRQAPGKGLEWMGGFDPENAETIYTQKFQGRLTMTEDTSTDTAYMELSSLRSEDTAMYYCATSFVLMPAALGDYSYYYGMDVWGQGTTVTVSS
VL: not shown
B9: mAb 1036 (antibody, V domains shown)
VH: B4 VH
VL: B4 VL
B10: mAb 923 (antibody, V domains shown)
VH: EVQLVESGGGVVRPGGSLRLSCAASGFIFDDYDMTWVRQAPGKGLEWVSGISWNGGNTGYADSVKGRFTISRDNAKNSLYLQMNSLRAEDTALYHCAVIMSPIPRYSGYDWAGGAFDIWGQGTMVTVSS
VL: SSELTQDPAVSVALGQTVRITCQGDSLRSYYASWYQQKPGQVPILVIYDKNNRPSGIPDRFSGSSSGNTASLTITGAQAEDEADYYCNSRDSSGNAVVFGGGTKLTVLG
B11: mAb 1015 (antibody, V domains shown)
VH: EVQLVESGGGLVQPGGSLRLSCAASGFTFSSYWMHWVRQAPGKGLVWVSHINSDGSSTSYADSVKGRFTISRDNAKNTLYLQMNSLRAEDTAVYYCARGLRYFDLDVWGQGTTVTVSS
VL: QSVLTQPPSVSEAPRQRVTISCSGSSSNIGNNAVNWYQQLPGKAPKLLIFYDDLLPSGVSDRFSGSKSGTSASLAISGLQSEDEADYYCAAWDDSLNGGVFGGGTKLTVLG

Biological target: SARS-CoV-2 full length Spike protein, wild type, expressed on CHO cells (SARS-CoV-2, UniProt P0DTC2 14-1273)

Binder	median fluorescence intensity, fold over isotype control [fold over isotype]
B1	10.9
B2	20.3
B3	19.2
B4	10.2

Biological target: SARS-CoV full length Spike (SARS-CoV, UniProt P59594 14-1190)

Binder	median fluorescence intensity, fold over isotype control [fold over isotype]
B5	0.97
B6	0.95
B7	547
B8	1.1
B9	1.05
B10	773
B11	0.91

Biological target: T1, HKU1 full length Spike (human coronavirus HKU1, UniProt Q5MQD0 13-1276)
T1 sequence: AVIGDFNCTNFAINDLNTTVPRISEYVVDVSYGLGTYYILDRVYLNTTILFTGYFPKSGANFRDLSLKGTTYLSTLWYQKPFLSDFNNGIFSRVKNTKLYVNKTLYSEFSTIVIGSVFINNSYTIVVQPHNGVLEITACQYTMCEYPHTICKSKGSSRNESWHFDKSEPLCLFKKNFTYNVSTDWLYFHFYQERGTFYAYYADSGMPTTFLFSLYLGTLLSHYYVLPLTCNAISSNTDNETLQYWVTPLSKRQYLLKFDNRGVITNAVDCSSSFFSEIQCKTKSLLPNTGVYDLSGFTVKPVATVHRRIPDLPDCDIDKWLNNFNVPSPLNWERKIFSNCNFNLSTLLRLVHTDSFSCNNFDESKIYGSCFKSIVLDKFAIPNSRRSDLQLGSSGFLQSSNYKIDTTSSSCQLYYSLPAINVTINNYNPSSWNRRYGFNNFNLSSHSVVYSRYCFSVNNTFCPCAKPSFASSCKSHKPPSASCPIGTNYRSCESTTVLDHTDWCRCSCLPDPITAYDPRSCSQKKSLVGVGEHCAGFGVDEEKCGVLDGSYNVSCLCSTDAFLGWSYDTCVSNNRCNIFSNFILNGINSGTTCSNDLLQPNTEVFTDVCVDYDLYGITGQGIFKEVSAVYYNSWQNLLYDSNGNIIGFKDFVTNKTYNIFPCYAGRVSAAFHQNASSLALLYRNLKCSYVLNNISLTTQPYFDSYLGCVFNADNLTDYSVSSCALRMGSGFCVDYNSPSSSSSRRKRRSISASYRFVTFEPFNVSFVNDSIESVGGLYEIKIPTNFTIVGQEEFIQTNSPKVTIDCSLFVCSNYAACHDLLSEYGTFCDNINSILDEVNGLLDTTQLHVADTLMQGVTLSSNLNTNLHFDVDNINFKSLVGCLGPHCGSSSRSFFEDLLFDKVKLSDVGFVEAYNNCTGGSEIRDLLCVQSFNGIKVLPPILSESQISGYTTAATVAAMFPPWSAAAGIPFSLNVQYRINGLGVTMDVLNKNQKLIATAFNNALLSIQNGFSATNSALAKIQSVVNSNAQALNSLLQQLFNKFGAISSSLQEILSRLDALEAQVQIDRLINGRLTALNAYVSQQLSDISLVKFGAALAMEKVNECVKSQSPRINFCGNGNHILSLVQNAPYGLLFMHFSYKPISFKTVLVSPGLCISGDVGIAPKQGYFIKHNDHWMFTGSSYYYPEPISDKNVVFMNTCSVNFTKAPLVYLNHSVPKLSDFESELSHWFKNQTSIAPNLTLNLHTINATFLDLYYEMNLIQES

Binder	median fluorescence intensity, fold over isotype control [fold over isotype]
B5	1.07
B6	1.02
B7	0.88
B8	1.18
B9	0.94
B10	1.42
B11	1.04

Biological target: T2, MERS full length Spike (MERS-CoV, UniProt K9N5Q8 18-1291)
T2 sequence: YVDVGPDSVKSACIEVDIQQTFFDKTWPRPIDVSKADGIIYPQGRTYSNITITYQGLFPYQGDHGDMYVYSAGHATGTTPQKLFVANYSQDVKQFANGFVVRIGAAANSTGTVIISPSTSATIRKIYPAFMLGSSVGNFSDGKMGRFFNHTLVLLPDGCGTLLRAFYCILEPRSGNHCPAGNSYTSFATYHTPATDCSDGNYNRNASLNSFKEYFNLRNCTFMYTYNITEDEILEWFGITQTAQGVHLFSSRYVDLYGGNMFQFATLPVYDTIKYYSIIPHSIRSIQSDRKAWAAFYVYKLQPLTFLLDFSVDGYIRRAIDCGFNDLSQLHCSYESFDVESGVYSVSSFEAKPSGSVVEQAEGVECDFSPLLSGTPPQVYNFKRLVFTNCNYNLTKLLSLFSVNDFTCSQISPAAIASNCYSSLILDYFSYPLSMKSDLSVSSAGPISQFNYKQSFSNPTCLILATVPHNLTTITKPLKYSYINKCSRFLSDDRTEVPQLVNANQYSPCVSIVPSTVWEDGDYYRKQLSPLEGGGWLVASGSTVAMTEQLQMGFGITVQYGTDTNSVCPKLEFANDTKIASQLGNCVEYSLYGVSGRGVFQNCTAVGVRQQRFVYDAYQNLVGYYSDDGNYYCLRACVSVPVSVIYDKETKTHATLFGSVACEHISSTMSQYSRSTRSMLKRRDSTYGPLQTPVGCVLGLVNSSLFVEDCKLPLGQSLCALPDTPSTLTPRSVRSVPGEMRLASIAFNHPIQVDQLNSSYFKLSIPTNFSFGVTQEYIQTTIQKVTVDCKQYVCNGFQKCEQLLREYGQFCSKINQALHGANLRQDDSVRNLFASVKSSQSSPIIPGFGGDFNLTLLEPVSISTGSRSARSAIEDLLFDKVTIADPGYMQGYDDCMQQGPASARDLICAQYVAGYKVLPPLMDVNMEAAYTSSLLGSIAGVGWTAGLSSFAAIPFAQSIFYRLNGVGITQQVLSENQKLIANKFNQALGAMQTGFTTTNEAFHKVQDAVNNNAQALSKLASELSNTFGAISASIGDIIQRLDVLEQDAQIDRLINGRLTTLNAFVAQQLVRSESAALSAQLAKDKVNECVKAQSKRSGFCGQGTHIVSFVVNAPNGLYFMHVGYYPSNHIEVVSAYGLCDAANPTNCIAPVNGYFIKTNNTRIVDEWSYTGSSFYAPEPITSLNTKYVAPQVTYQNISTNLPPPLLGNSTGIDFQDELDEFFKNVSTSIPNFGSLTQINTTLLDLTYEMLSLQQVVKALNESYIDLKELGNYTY

Binder	median fluorescence intensity, fold over isotype control [fold over isotype]
B5	1.02
B6	0.92
B7	0.87
B8	1.06
B9	1.07
B10	1.08
B11	0.85
